The target of assay [1] is T1, EGFP-Arc (EGFP tag at the N-terminus), expressed in U2OS cells (mouse), Q9WV31.
T1 chain: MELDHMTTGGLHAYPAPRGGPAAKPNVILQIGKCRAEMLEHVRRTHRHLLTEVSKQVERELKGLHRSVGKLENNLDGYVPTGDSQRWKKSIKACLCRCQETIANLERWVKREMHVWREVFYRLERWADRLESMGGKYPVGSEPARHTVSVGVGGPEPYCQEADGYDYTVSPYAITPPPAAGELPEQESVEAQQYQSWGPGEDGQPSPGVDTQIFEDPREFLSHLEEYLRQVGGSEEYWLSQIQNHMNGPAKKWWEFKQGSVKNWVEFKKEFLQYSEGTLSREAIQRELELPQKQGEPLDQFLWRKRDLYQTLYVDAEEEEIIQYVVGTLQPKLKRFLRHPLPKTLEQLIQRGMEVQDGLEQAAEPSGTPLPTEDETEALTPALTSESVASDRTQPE
In words: fluorescence fluctuation spectroscopy (brightness analysis); single-point FFS in the cytoplasm of living U2OS cells, ~200 nM to ~5 µM EGFP-tagged Arc; normalized brightness b against EGFP alone gives the average stoichiometry. The conditions noted are these: remark: other sources report otherwise.

Assay [2] has as its target T2, Arc-EGFP (EGFP tag at the C-terminus), expressed in U2OS cells (mouse), Q9WV31.
T2 chain: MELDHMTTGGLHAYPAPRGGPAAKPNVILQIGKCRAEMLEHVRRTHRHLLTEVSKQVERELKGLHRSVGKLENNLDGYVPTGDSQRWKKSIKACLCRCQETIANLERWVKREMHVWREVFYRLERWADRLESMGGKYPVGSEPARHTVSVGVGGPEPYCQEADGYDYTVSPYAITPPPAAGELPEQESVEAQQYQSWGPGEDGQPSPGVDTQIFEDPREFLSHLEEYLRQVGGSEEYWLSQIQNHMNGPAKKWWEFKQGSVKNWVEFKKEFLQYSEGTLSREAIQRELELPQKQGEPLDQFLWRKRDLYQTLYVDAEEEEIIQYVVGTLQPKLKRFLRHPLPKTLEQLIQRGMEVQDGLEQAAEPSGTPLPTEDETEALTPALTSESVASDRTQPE
Described as above. The note with it: remark: other sources report otherwise.

B1: EGFP-Arc (EGFP tag at the N-terminus), expressed in U2OS cells, Q9WV31 1-396 (natural protein)
chain: MELDHMTTGGLHAYPAPRGGPAAKPNVILQIGKCRAEMLEHVRRTHRHLLTEVSKQVERELKGLHRSVGKLENNLDGYVPTGDSQRWKKSIKACLCRCQETIANLERWVKREMHVWREVFYRLERWADRLESMGGKYPVGSEPARHTVSVGVGGPEPYCQEADGYDYTVSPYAITPPPAAGELPEQESVEAQQYQSWGPGEDGQPSPGVDTQIFEDPREFLSHLEEYLRQVGGSEEYWLSQIQNHMNGPAKKWWEFKQGSVKNWVEFKKEFLQYSEGTLSREAIQRELELPQKQGEPLDQFLWRKRDLYQTLYVDAEEEEIIQYVVGTLQPKLKRFLRHPLPKTLEQLIQRGMEVQDGLEQAAEPSGTPLPTEDETEALTPALTSESVASDRTQPE
With B1, the stoichiometry N (Arc molecules per particle) in assay [1] is 1 to 3.

B2: Arc-EGFP (EGFP tag at the C-terminus), expressed in U2OS cells, Q9WV31 1-396 (natural protein)
chain: MELDHMTTGGLHAYPAPRGGPAAKPNVILQIGKCRAEMLEHVRRTHRHLLTEVSKQVERELKGLHRSVGKLENNLDGYVPTGDSQRWKKSIKACLCRCQETIANLERWVKREMHVWREVFYRLERWADRLESMGGKYPVGSEPARHTVSVGVGGPEPYCQEADGYDYTVSPYAITPPPAAGELPEQESVEAQQYQSWGPGEDGQPSPGVDTQIFEDPREFLSHLEEYLRQVGGSEEYWLSQIQNHMNGPAKKWWEFKQGSVKNWVEFKKEFLQYSEGTLSREAIQRELELPQKQGEPLDQFLWRKRDLYQTLYVDAEEEEIIQYVVGTLQPKLKRFLRHPLPKTLEQLIQRGMEVQDGLEQAAEPSGTPLPTEDETEALTPALTSESVASDRTQPE
With B2, the stoichiometry N (Arc molecules per particle) in assay [2] is 1 to 3.

The values are drawn from PMC11203824.
